Patent US12448434B2, “Antibodies specifically recognizing Pseudomonas PcrV and uses thereof” (priority 2019, dated 2025)
Changes are numbered by the printed parent chain.

How the values were obtained:
PcrV = assay: BIACORE binding to PcrV; set-up: species or system Pseudomonas aeruginosa; details: data not shown
Protocol: The association constant (ka), dissociation constant (kd) and the equilibrium dissociation constant (kD) for binding of optimized anti-PcrV mAb clones 7B1, 7C1, 8C1, 6D10 and reference antibody V2L2-MD to PcrV were tested by BIACORE (GE company).

[1] = system: P. aeruginosa strains O6-57/66, O11-PA103, O1-52/66 and O16-177/81; assay: A549 cell lysis inhibition, various strains (average); format: cell-based, Pseudomonas aeruginosa; details: FIGS. 6A-6D
Protocol: To assay for ability to inhibit cytotoxicity and cell lysis caused by P. aeruginosa, the candidate anti-PcrV antibodies were added to human bronchoepithelial cell line A549 or human histiocytic lymphoma cell line U937 seeded in white 96-well plates (Nunc Nunclon Delta) in DMEM plus 10% fetal bovine serum. Log-phase strain PA103(O11) P. aeruginosa was added at a multiplicity of infection (MOI) of 10 and incubated for 2 h at 37° C. and 5% CO2, followed by 20 minutes of equilibration at room temperature. Lactate dehydrogenase (LDH) released from lysed cells was quantified using the CytoTox-ONE kit (Promega), to assay membrane integrity. The relative amount of lysis inhibition was plotted accordingly. IC50 values for the antibodies were also determined.
The optimized anti-PcrV mAb clones 7C1, 8C1, and 7B1 were analyzed for their abilities to inhibit A549 cell lysis by various strains of P. aeruginosa, namely strains O6-57/66, O11-PA103, O1-52/66 and O16-177/81, as compared to the parental 13-42 mAb. A549 cell lysis inhibition assay was performed as described in Example 2.

PcrV-negative A549 cells = assay: Cross-reactivity to PcrV-negative A549 cells by FACS; format: cell-based, human; details: FIGS. 4A-4E, compared with no antibody and V2L2-MD
Protocol: Cross-reactivity to A549 cells: Using FACS, parental antibody 13-42, optimized antibodies 7C1, 7B1, 8C1, 6D10 as well as V2L2-MD were tested for cross-reactivity to PcrV-negative A549 cells.

[2] = system: PcrV mutants (with mutations at position 225); assay: Binding to PcrV mutants with mutations at position 225; set-up: species or system Pseudomonas aeruginosa; details: data not shown
Protocol: To further illustrate the optimized antibodies could broadly neutralize P. aeruginosa strains, the abilities of these antibodies to bind various forms of PcrV mutants were tested. Briefly, 100 PcrV sequences were randomly selected from Genebank database. In contrast to the wild type sequence as shown in SEQ ID No: 71, 13% of the selected sequences contained R, G, or K at position 225 (as compared of S in the wild type sequence SEQ No: 71), which was the main mutation around the epitope of 7B1.
These findings further illustrate that the optimized anti-PcrV antibodies could neutralize a broad spectrum of P. aeruginosa strains, which might express various forms of PcrV mutants.

[3] = system: P. aeruginosa (PA103 strain); assay: Prophylactic mouse acute pneumonia model, organ burden; format: in vivo, BALB/c mice; details: 10 mg/kg i.p. 24 hr before infection; 0.5*LD90; FIG. 8B
Protocol: In a prophylactic model, 7-8 week old BALB/c mice (Vital River Laboratory) were administered with antibodies or PBS intraperitoneally (i.p.) 24 hr before infection, at 10 mg/kg mouse weight. To induce acute pneumonia, the BALB/c mice were intranasally inoculated with P. aeruginosa (PA103 strain) suspended in a 40 μl inoculum at half the lethal dose (0.5*LD90; 3×10^5 CFU). 24 hours post-infection, mice were euthanized, where the lungs, spleens and kidneys were extracted, homogenized and diluted before plating on agar to measure the viable bacteria units (in CFU), which represented the P. aeruginosa burden in the respective organ sample.

[4] = system: P. aeruginosa (O6-57/66 strain); assay: Prophylactic acute pneumonia model in immunodeficient mice, survival; format: in vivo, BALB/c mice; details: cyclophosphamide-immunosuppressed mice; 3.2 to 5 mg/kg i.p. 24 h before infection; 1*LD90; 10 days
Protocol: The ability of the optimized anti-PcrV antibodies 7C1, 7B1 and 8C1 to improve survival for acute pneumonia model in immunodeficient mice was evaluated in comparison to parental 13-42. HIV-10E8 was used as negative control. The acute pneumonia model in immunodeficient mice model was generated as described previously (DiGiandomenico et al., 2014, Sci. Transl. Med., 6: 262ra155).
In a prophylactic model, to achieve immunosuppression, 7-8 week old BALB/c mice (Vital River Laboratory) were first administered 2 doses of 150 mg/kg of cyclophosphamide, at 4 days and 1 day before P. aeruginosa infection, to suppress white cell count. Antibodies were then administered intraperitoneally (i.p.) at 24 h before infection, at doses of 3.2 to 5 mg/kg mouse weight. To induce acute pneumonia, the BALB/c mice were intranasally inoculated with P. aeruginosa (O6-57/66 strain) suspended in a 40 μl inoculum at the lethal dose (1*LD90=[…]). Mouse survival was recorded for up to 10 days post-infection.

[5] = system: P. aeruginosa (PA103 strain); assay: Therapeutic mouse acute pneumonia model, survival; format: in vivo, BALB/c mice; details: i.v. 1 h post-infection, 1 mg/kg or 10 mg/kg; 1*LD90; 6 days
Protocol: In a therapeutic model, to induce acute pneumonia, 7-8 week old BALB/c mice (Vital River Laboratory) were intranasally inoculated with P. aeruginosa (PA103 strain) suspended in a 40 μl inoculum at a lethal dose (1*LD90=8×10^5 CFU). Antibodies or PBS were administered intravenously (i.v.) at 1 h post-infection, at a dose of 1 mg/kg or 10 mg/kg mouse weight. Mouse survival was recorded for up to 6 days post-infection.

B1: 7B1: optimized anti-PcrV mAb clone; VH SEQ ID NO: 62, VL SEQ ID NO: 67 (antibody, V domains shown)
VH: EVQLLESGGGLVQPGGSLRLSCTASGFTFSDNYMSWVRQAPGKGLDWVSVISESGGSTNYADSVKGRFSTSRDNSKSTLYLDMNSLRAEDTAIYYCAKGRFSTLSSHFFRAVYGMDVWGQGTAVTVSS
VL: DIQLTQSPSSLSASVGDRVTITCRASQGISSYLAWYQQKPGKAPKLLIYAASTLQSGVPSRFSGSGSGTDFTLTISSLQPEDFATYYCQQLSSYPLTFGGGTKVEIK
For B1, the “association and dissociation kinetics in PcrV binding (ka and kd values)” value (shortened to “association and dissociation kinetics”) (PcrV) was “comparable association and dissociation kinetics”, the “efficacy in inhibiting A549 lysis by four strains relative to parental 13-42 mAb” value [1] was “comparable efficacy in inhibiting A549 lysis” and the “binding to PcrV-negative A549 cells” value (PcrV-negative A549 cells) was “similarly low levels of A549 binding”. For the same molecule, the “binding to PcrV mutants with R, G or K at position 225” value (“binding to PcrV mutants with R” for short) [2] was “strongly bind these mutants”, the “reduction of organ burden in the lung, spleen and kidney relative to HIV-10E8” value [3] was “higher efficacy in reducing organ burden” and the “reduction of organ burden in the lung, spleen and kidney relative to V2L2-MD” value [3] was “comparable efficacy in reducing organ burden”. The “survival improvement / protection relative to parental 13-42 antibody” value [4] was “comparable or better protection than the parental 13-42 antibody” and the “survival improvement relative to V2L2-MD” value [5] was “survival improvement comparable to that of V2L2-MD”.

B2: 7C1: optimized anti-PcrV mAb clone; VH SEQ ID NO: 52, VL SEQ ID NO: 65 (antibody, V domains shown)
VH: B1 VH with Y33H, V50G, L104S, F109Y
VL: B1 VL with T97S
With B2 the “association and dissociation kinetics” value (PcrV) was “comparable association and dissociation kinetics”, the “efficacy in inhibiting A549 lysis by four strains relative to parental 13-42 mAb” value [1] was “comparable efficacy in inhibiting A549 lysis” and the “binding to PcrV-negative A549 cells” value (PcrV-negative A549 cells) was “similarly low levels of A549 binding”. For the same molecule, the “binding to PcrV mutants with R” value [2] was “strongly bind these mutants”, the “reduction of organ burden in the lung, spleen and kidney relative to HIV-10E8” value [3] was “higher efficacy in reducing organ burden” and the “reduction of organ burden in the lung, spleen and kidney relative to V2L2-MD” value [3] was “comparable efficacy in reducing organ burden”. The “survival improvement / protection relative to parental 13-42 antibody” value [4] was “better survival improvement than the parental 13-42 antibody” and the “survival improvement relative to V2L2-MD” value [5] was “survival improvement comparable to that of V2L2-MD”.

B3: 8C1: optimized anti-PcrV mAb clone; VH SEQ ID NO: 51, VL SEQ ID NO: 67 (antibody, V domains shown)
VH: B1 VH with Y33H, V50G, L104N, S106A
VL: B1 VL
With B3 the “association and dissociation kinetics” value (PcrV) was “comparable association and dissociation kinetics”, the “efficacy in inhibiting A549 lysis by four strains relative to parental 13-42 mAb” value [1] was “comparable efficacy in inhibiting A549 lysis” and the “binding to PcrV-negative A549 cells” value (PcrV-negative A549 cells) was “similarly low levels of A549 binding”. The “binding to PcrV mutants with R” value [2] was “strongly bind these mutants”, the “reduction of organ burden in the lung, spleen and kidney relative to HIV-10E8” value [3] was “higher efficacy in reducing organ burden” and the “reduction of organ burden in the lung, spleen and kidney relative to V2L2-MD” value [3] was “comparable efficacy in reducing organ burden”. For the same molecule, the “survival improvement / protection relative to parental 13-42 antibody” value [4] was “comparable or better protection than the parental 13-42 antibody” and the “survival improvement relative to V2L2-MD” value [5] was “survival improvement comparable to that of V2L2-MD”.
